Assay [1] deals with Zika virus envelope glycoprotein E, as displayed on recombinant F2A virus-like particles (Zika virus (strain BeH818995)). The experiment in a line: non-reducing SDS-PAGE with Western blot; cell culture medium of transfected 293T cells, 72 and 96 h posttransfection at 37°C, 20 μg of total protein per sample; nonreducing conditions; E detected with monoclonal 4G2 antibody.
For assay [2] the target is unchanged. The experiment in a line: SDS-PAGE with Western blot; fractions of the two-step chromatographic purification of F2A VLPs (HiTrap Capto Q, then HiScreen Capto Core 700 flow-through); immunoblot of E.

Consider “Zika virus envelope glycoprotein E, as displayed on recombinant F2A virus-like particles (natural protein)”, for which the stoichiometry N in assay [1] and in assay [2] was 2 in each case.

These data come from article PMC9927573.
